First the molecules themselves.
B3: Nup192(2-960) (domain or fragment, S. cerevisiae, UniProt P47054 2-960, looked up)
chain: KWSAIPFQTLYRSIESGEFDFDLFKEVLPDLQNLNLNTDKLKNNASRSQLEKGEIELSDGSTFKVNQEFIFEAISLSDELNLDEIVACELILSGDTTANNGKVQYFLRRQYILQIVSFIVNCFHEDTELYQELIKNGALVSNILSAFKFIHTQLSEIKQQINKAQILENYNALFQQNIKFRRDFLLREYDILSQILYGLVDKGAIMKNKDFILSLLHHVSELDSNDFFIIYYTPAFFHLFASLRVLPDADVKLLHSQFMKDLKDDSIYTKPVKVALIFIFFAYFIGWCKEDPKRRADTMDFKTDVDEPMTSAVELGAIEQILIFAADTSIVEQDKSMELFYDIRSLLERHIPRLIPKQLLDDEKIFSQTTNSTYNPASATDNMSGRGLWNPSYPGMMSTTGTARLNSMPNNVNEYSYTTIVLSDQTQEFFLSSFDDVLQTIITDCAFLLTKIKDAEEDSLLSGEDLTLDDISLKADLERFFLSIYFFYASRPEYSCTFWSDKESNAYGFIEWCSRCNDNLMRSCFYLMVSSLSFGPENALNVYHYFGENSSISWKNIAQCLSDYTKKISNFNSSLHKRQQFSESTHNDIDSTAVALEEGLNEEAVIFLSSLLTLVGSVTYQVDEDVKSSLSKVFSDVLFEFTKINTPLVGAAFKVISNLVPKLESSRTKFWSFLDSLIFKDSSLNYSSESYRNAFTNVLTKYSDVLGFLQLFHNLISIHSRENNSEYMVFGKLAFPTRLGQGYRKVGIWPYFDYIFNDILAHVDQIVDIRNKRAVQLPILKIIYTGLCSFDYSVILNSIPAAANLDALVDCENFFNYVQECPAIPIFNYIFTEKIYKSIFNVVDVGVDQLSIELEGGKNQAELLQLAVKIINKVLDYQETYVEELFPIVKKHGKTDYFLPKNYSLHGLRSFYDAIFFNIPLVAHLGLYVGVDDQILATNSLRILAKLSERSNGSVASLS

One assay has as its target His6-Avitag-MBP-Nup116 (S. cerevisiae, UniProt Q02630 1-1113, biotin on the Avitag). The assay can be described thus: BLI.
In assay [1] the target is Nup84-Nup133(521-1157) complex (S. cerevisiae, UniProt P52891 1-726; P36161 521-1157). Nature of the assay: pull-down.
Chain of Nup84-Nup133(521-1157) complex (P52891 whole entry, chain 1 of 2): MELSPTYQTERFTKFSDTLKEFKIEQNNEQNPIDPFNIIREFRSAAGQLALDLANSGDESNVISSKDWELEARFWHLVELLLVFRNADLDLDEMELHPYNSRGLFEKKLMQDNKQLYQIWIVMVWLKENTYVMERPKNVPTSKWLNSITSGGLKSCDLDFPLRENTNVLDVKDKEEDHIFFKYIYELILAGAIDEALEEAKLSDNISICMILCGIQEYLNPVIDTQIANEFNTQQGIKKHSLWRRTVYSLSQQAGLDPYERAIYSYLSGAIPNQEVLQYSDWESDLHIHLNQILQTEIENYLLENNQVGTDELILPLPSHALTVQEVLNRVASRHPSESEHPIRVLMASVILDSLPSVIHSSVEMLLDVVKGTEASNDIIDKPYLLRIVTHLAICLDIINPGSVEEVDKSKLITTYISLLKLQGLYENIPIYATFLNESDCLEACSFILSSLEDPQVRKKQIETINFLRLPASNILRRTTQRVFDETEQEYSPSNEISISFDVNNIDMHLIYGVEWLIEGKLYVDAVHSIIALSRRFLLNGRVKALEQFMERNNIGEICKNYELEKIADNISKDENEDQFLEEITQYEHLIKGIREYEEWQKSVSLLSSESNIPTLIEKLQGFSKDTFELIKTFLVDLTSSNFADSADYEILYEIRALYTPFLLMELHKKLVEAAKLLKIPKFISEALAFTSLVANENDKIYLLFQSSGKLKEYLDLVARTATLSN
Chain of Nup84-Nup133(521-1157) complex (P36161 521-1157, chain 2 of 2): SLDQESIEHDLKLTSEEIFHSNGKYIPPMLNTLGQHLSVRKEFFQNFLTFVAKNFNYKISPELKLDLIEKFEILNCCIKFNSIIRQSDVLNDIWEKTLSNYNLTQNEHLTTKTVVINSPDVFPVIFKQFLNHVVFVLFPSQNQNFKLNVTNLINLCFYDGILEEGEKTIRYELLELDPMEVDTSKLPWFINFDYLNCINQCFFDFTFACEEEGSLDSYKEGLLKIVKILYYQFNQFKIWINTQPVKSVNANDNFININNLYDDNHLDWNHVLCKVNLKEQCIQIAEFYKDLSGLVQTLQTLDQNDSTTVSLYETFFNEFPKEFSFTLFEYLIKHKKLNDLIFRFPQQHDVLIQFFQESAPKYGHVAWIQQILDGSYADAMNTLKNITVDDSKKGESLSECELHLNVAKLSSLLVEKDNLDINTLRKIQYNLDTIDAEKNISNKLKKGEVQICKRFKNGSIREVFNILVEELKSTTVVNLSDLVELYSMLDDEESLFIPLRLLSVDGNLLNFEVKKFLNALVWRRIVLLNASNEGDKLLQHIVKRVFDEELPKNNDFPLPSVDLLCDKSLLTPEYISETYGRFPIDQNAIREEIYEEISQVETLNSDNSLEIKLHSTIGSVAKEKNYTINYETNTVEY
The assay “Nup192(2-960)” deals with B3. The assay can be described thus: BLI.

The values below come from article PMC5992322 (Cell, 2017).

B1: Nup170(980-1502) (domain or fragment, S. cerevisiae, UniProt P38181 980-1502, looked up)
chain: SIEYTATALQERCGSFCSASDILGFRAIEHLRRAKEIGLRNYDSLNYHLKNATALLEQIVDDLSIEKLKEAVSMMLSVNYYPKSIEFLLNIANSMDKGKLACQYVANGFLENDDRKQYYDKRILVYDLVFDTLIKVDELAEKKQSSKTQNQISISNDDEVKLRQKSYEAALKYNDRLFHYHMYDWLVSQNREEKLLDIETPFILPYLMEKAGSSLKISNILWVYYSRRSKFFESAEILYRLATSNFDITLFERIEFLSRANGFCNSVSPLSQKQRIVQLASRIQDACEVAGIQGDILSLVYTDARIDSAIKDELIKTLDGKILSTSELFNDFAVPLSYHEIALFIFKIADFRDHEVIMAKWDELFQSLRMEFNNTGKKEDSMNFINLLSNVLIKIGKNVQDSEFIFPIFELFPIVCNFFYETLPKEHIVSGSIVSIFITAGVSFNKMYYILKELIETSDSDNSVFNKEMTWLIHEWYKSDRKFRDIISYNDIIHLKEYKIDNDPIEKYVKNSGNNLGICFYKE
Turning to B1, in the assay with His6-Avitag-MBP-Nup116, the binding result is “binds”.

B2: GST-Nup100(1-307) (domain or fragment, S. cerevisiae, UniProt Q02629 1-307, looked up)
chain: MFGNNRPMFGGSNLSFGSNTSSFGGQQSQQPNSLFGNSNNNNNSTSNNAQSGFGGFTSAAGSNSNSLFGNNNTQNNGAFGQSMGATQNSPFGSLNSSNASNGNTFGGSSSMGSFGGNTNNAFNNNSNSTNSPFGFNKPNTGGTLFGSQNNNSAGTSSLFGGQSTSTTGTFGNTGSSFGTGLNGNGSNIFGAGNNSQSNTTGSLFGNQQSSAFGTNNQQGSLFGQQSQNTNNAFGNQNQLGGSSFGSKPVGSGSLFGQSNNTLGNTTNNRNGLFGQMNSSNQGSSNSGLFGQNSMNSSTQGVFGQNNN
As to B2, in assay [1], the binding result is “binds”.
Regarding B3, in the assay with His6-Avitag-MBP-Nup116, the “KD of the dominant of the two binding modes” value came to 500 nM and the “fold lower KD than with the Nup116 variant lacking the GLFG-repeats” value is about 15 fold.

B4: His6-Avitag-MBP-Nup116(718-1113) (domain or fragment, S. cerevisiae, UniProt Q02630 718-1113, looked up)
chain: SQSMAQSQNALQQQQQQQRLQIQNNNPYGTNELFSKATVTNTVSYPIQPSATKIKADERKKASLTNAYKMIPKTLFTAKLKTNNSVMDKAQIKVDPKLSISIDKKNNQIAISNQQEENLDESILKASELLFNPDKRSFKNLINNRKMLIASEEKNNGSQNNDMNFKSKSEEQETILGKPKMDEKETANGGERMVLSSKNDGEDSATKHHSRNMDEENKENVADLQKQEYSEDDKKAVFADVAEKDASFINENYYISPSLDTLSSYSLLQLRKVPHLVVGHKSYGKIEFLEPVDLAGIPLTSLGGVIITFEPKTCIIYANLPNRPKRGEGINVRARITCFNCYPVDKSTRKPIKDPNHQLVKRHIERLKKNPNSKFESYDADSGTYVFIVNHAAEQT
modifications: biotin on the Avitag
For the molecule B4, the binding result with Nup192(2-960) was “binds”.

B5: ScKap95 (natural protein, S. cerevisiae, UniProt Q06142 1-861, looked up)
chain: MSTAEFAQLLENSILSPDQNIRLTSETQLKKLSNDNFLQFAGLSSQVLIDENTKLEGRILAALTLKNELVSKDSVKTQQFAQRWITQVSPEAKNQIKTNALTALVSIEPRIANAAAQLIAAIADIELPHGAWPELMKIMVDNTGAEQPENVKRASLLALGYMCESADPQSQALVSSSNNILIAIVQGAQSTETSKAVRLAALNALADSLIFIKNNMEREGERNYLMQVVCEATQAEDIEVQAAAFGCLCKIMSLYYTFMKPYMEQALYALTIATMKSPNDKVASMTVEFWSTICEEEIDIAYELAQFPQSPLQSYNFALSSIKDVVPNLLNLLTRQNEDPEDDDWNVSMSAGACLQLFAQNCGNHILEPVLEFVEQNITADNWRNREAAVMAFGSIMDGPDKVQRTYYVHQALPSILNLMNDQSLQVKETTAWCIGRIADSVAESIDPQQHLPGVVQACLIGLQDHPKVATNCSWTIINLVEQLAEATPSPIYNFYPALVDGLIGAANRIDNEFNARASAFSALTTMVEYATDTVAETSASISTFVMDKLGQTMSVDENQLTLEDAQSLQELQSNILTVLAAVIRKSPSSVEPVADMLMGLFFRLLEKKDSAFIEDDVFYAISALAASLGKGFEKYLETFSPYLLKALNQVDSPVSITAVGFIADISNSLEEDFRRYSDAMMNVLAQMISNPNARRELKPAVLSVFGDIASNIGADFIPYLNDIMALCVAAQNTKPENGTLEALDYQIKVLEAVLDAYVGIVAGLHDKPEALFPYVGTIFQFIAQVAEDPQLYSEDATSRAAVGLIGDIAAMFPDGSIKQFYGQDWVIDYIKRTRSGQLFSQATKDTARWAREQQKRQLSL
For B5, the binding result in the assay with His6-Avitag-MBP-Nup116 is on record as “binds”.

B6: GST-Nup116(348-458) (domain or fragment, S. cerevisiae, UniProt Q02630 348-458, looked up)
chain: GALFGAKPASGGLFGQSAGSKAFGMNTNPTGTTGGLFGQTNQQQSGGGLFGQQQNSNAGGLFGQNNQSQNQSGLFGQQNSSNAFGQPQQQGGLFGSKPAGGLFGQQQGAST
B6: in assay [1], the binding result is “binds”.

B7: GST-Nup100(1-610) (domain or fragment, S. cerevisiae, UniProt Q02629 1-610, looked up)
chain: MFGNNRPMFGGSNLSFGSNTSSFGGQQSQQPNSLFGNSNNNNNSTSNNAQSGFGGFTSAAGSNSNSLFGNNNTQNNGAFGQSMGATQNSPFGSLNSSNASNGNTFGGSSSMGSFGGNTNNAFNNNSNSTNSPFGFNKPNTGGTLFGSQNNNSAGTSSLFGGQSTSTTGTFGNTGSSFGTGLNGNGSNIFGAGNNSQSNTTGSLFGNQQSSAFGTNNQQGSLFGQQSQNTNNAFGNQNQLGGSSFGSKPVGSGSLFGQSNNTLGNTTNNRNGLFGQMNSSNQGSSNSGLFGQNSMNSSTQGVFGQNNNQMQINGNNNNSLFGKANTFSNSASGGLFGQNNQQQGSGLFGQNSQTSGSSGLFGQNNQKQPNTFTQSNTGIGLFGQNNNQQQQSTGLFGAKPAGTTGSLFGGNSSTQPNSLFGTTNVPTSNTQSQQGNSLFGATKLTNMPFGGNPTANQSGSGNSLFGTKPASTTGSLFGNNTASTTVPSTNGLFGNNANNSTSTTNTGLFGAKPDSQSKPALGGGLFGNSNSNSSTIGQNKPVFGGTTQNTGLFGATGTNSSAVGSTGKLFGQNNNTLNVGTQNVPPVNNTTQNALLGTTAVPSLQQAPVTN
For B7, the binding result in assay [1] is “binds”.
